Test results published in US20200297842A1 (published 2020).

B1: SIRP11 (antibody, human IgG4 S228P, kappa, V domains shown)
VH: QVQLVQSGAEVKKPGASVKVSCKASGYSFTDYFLNWVRQAPGQGLEWMGRINPYNGDSFINQNFRDRVTMTRDTSTSTVYMELSSLRSEDTAVYYCARGGYDGYFIAYFDYWGAGTTVTVSS
VL: DIQMTQSPSSLSASVGDRVTITCKASQDINSHLSWYQQKPGKAPKLLIYRANRLATGVPSRFSGSGSGTDFTFTISSLQPEDIATYYCLQYDEFPYTFGGGTKLEIKR
notes: shares the heavy-chain CDRs of SIRP4
B2: SIRP17 (antibody, human IgG4 S228P, kappa, V domains shown)
VH: EVQLVQSGAEVKKPGESLKISCKGSGYSFTDYFLNWVRQMPGKGLEWMGRINPYNGDSFINQNFRDQVTISADKSISTAYLQWSSLKASDTAMYYCARGGYDGYFIAYFDYWGAGTTVTVSS
VL: DIQMTQSPSSLSASVGDRVTITCKASQDINSHLSWYQQKPGKAPKLLIYRANRLATGVPSRFSGSGSGTDFTFTISSLQPEDIATYYCLQYDEFPYTFGGGTKLEIKR
B3: SIRP22 (antibody, human IgG4 S228P, kappa, V domains shown)
VH: QVQLVQSGAEVKKPGASVKVSCKASGYSFTDYFLNWVRQAPGQGLEWMGRINPYNGDSFINQNFRDRVTMTVDTSTSTVYMELSSLRSEDTAVYYCARGGYDGYFIAYFDYWGAGTTVTVSS
VL: DIQMTQSPSSLSASVGDRVTITCKASQDINSHLSWYQQKPGKAPKLLIYRANRLATGVPSRFSGSGSGTDFTFTISSLQPEDIATYYCQQYDEFPYTFGGGTKLEIKR
B4: SIRP16 (antibody, human IgG4 S228P, kappa, V domains shown)
VH: QVQLVQSGAEVKKPGSSVKVSCKASGYSFTDYFLNWVRQAPGQGLEWMGRINPYNGDSFINQNFRDRVTITADKSTSTAYMELSSLRSEDTAVYYCARGGYDGYFIAYFDYWGAGTTVTVSS
VL: DIQMTQSPSSLSASVGDRVTITCKASQDINSHLSWYQQKPGKAPKLLIYRANRLATGVPSRFSGSGSGTDFTFTISSLQPEDIATYYCQQYDEFPYTFGGGTKLEIKR
B5: SIRP12 (antibody, human IgG4 S228P, kappa, V domains shown)
VH: QVQLVQSGAEVKKPGASVKVSCKASGYSFTDYFLNWVRQAPGQGLEWMGRINPYNGDSFINQNFRDRVTMTRDTSTSTVYMELSSLRSEDTAVYYCARGGYDGYFIAYFDYWGAGTTVTVSS
VL: DIQMTQSPSSLSASVGDRVTITCKASQDINSHLSWYQQKPGKAPKLLIYRANRLATGVPSRFSGSGSGTDFTFTISSLEYEDIATYYCLQYDEFPYTFGGGTKLEIKR
B6: SIRP20 (antibody, human IgG4 S228P, kappa, V domains shown)
VH: QVQLVQSGAEVKKPGASVKVSCKASGYSFTDYFLNWVRQAPGQGLEWMGRINPYNGDSFINQNFRDRVTMTVDTSTSTVYMELSSLRSEDTAVYYCARGGYDGYFIAYFDYWGAGTTVTVSS
VL: DIQMTQSPSSLSASVGDRVTITCKASQDINSHLSWYQQKPGKAPKLLIYRANRLATGVPSRFSGSGSGTDFTFTISSLQPEDIATYYCLQYDEFPYTFGGGTKLEIKR
B7: SIRP21 (antibody, human IgG4 S228P, kappa, V domains shown)
VH: QVQLVQSGAEVKKPGASVKVSCKASGYSFTDYFLNWVRQAPGQGLEWMGRINPYNGDSFINQNFRDRVTMTVDTSTSTVYMELSSLRSEDTAVYYCARGGYDGYFIAYFDYWGAGTTVTVSS
VL: DIQMTQSPSSLSASVGDRVTITCKASQDINSHLSWYQQKPGKAPKLLIYRANRLATGVPSRFSGSGSGTDFTFTISSLEYEDIATYYCLQYDEFPYTFGGGTKLEIKR
B8: SIRP18 (antibody, human IgG4 S228P, kappa, V domains shown)
VH: EVQLVQSGAEVKKPGESLKISCKGSGYSFTDYFLNWVRQMPGKGLEWMGRINPYNGDSFINQNFRDQVTISADKSISTAYLQWSSLKASDTAMYYCARGGYDGYFIAYFDYWGAGTTVTVSS
VL: DIQMTQSPSSLSASVGDRVTITCKASQDINSHLSWYQQKPGKAPKLLIYRANRLATGVPSRFSGSGSGTDFTFTISSLEYEDIATYYCLQYDEFPYTFGGGTKLEIKR
B9: SIRP14 (antibody, human IgG4 S228P, kappa, V domains shown)
VH: QVQLVQSGAEVKKPGSSVKVSCKASGYSFTDYFLNWVRQAPGQGLEWMGRINPYNGDSFINQNFRDRVTITADKSTSTAYMELSSLRSEDTAVYYCARGGYDGYFIAYFDYWGAGTTVTVSS
VL: DIQMTQSPSSLSASVGDRVTITCKASQDINSHLSWYQQKPGKAPKLLIYRANRLATGVPSRFSGSGSGTDFTFTISSLQPEDIATYYCLQYDEFPYTFGGGTKLEIKR
B10: SIRP13 (antibody, human IgG4 S228P, kappa, V domains shown)
VH: QVQLVQSGAEVKKPGASVKVSCKASGYSFTDYFLNWVRQAPGQGLEWMGRINPYNGDSFINQNFRDRVTMTRDTSTSTVYMELSSLRSEDTAVYYCARGGYDGYFIAYFDYWGAGTTVTVSS
VL: DIQMTQSPSSLSASVGDRVTITCKASQDINSHLSWYQQKPGKAPKLLIYRANRLATGVPSRFSGSGSGTDFTFTISSLQPEDIATYYCQQYDEFPYTFGGGTKLEIKR
B11: SIRP15 (antibody, human IgG4 S228P, kappa, V domains shown)
VH: QVQLVQSGAEVKKPGSSVKVSCKASGYSFTDYFLNWVRQAPGQGLEWMGRINPYNGDSFINQNFRDRVTITADKSTSTAYMELSSLRSEDTAVYYCARGGYDGYFIAYFDYWGAGTTVTVSS
VL: DIQMTQSPSSLSASVGDRVTITCKASQDINSHLSWYQQKPGKAPKLLIYRANRLATGVPSRFSGSGSGTDFTFTISSLEYEDIATYYCLQYDEFPYTFGGGTKLEIKR
B12: SIRP6 (antibody, V domains shown)
VH: QIQLVQSGPELKKPGETVKISCKASGYTFTDYGVNWVKQGPGKDLQWMGWVNTNTRESTYVEDFKGRFAFSLETSASTAYLQINNLKNEDSSTYFCARGAYDAYYYYYGMDYWGQGTSVTVSS
VL: DIQMTQSPASLSASVGETVTITCRASENIYSYLTWYKQKQGKSPQLLVYNAKTLAEGVPSRFSGSGSGTQFSLKINSLQPEDFGSYYCQHHYGSPRTFGGGTKLEIK
B13: SIRP23 (antibody, human IgG4 S228P, kappa, V domains shown)
VH: EVQLQQSGPDLVKPGASVKISCKASGYSFTDYFLNWVKQSHGKSLEWIGRINPYNGDSFINQNFRDKATLTVDKSSTTAHMDLLSLTSEDSAIYYCGRGGYDGYFIAYFDYWGQGSLVTVSA
VL: DIKMTQSPSSMYASLGQRVTITCKASQDINSHLSWFQEKPGKSPKTLIYRANRLADGVPSRFSGSGSGQDYFLTISSLEYEDVGIYYCLQYDEFPYTFGGGTKLEIKR
B14: SIRP10 (antibody, V domains shown)
VH: EVQLQESGAELVRPGTSVKMSCKAAGYTFSNYLIGWIKQRPGHGLEWIGDIYPGDNNTNYNEKFRVKATLTADTSSNTAYMHLTSLTSEDSAIYYCAGGTDYDGFANWGQGTLVTVSA
VL: ENVLTQSPAIMSASLGEKVTMSCRASSSVNYMYWYQQKSDASPKLWIYYTSKLAPGVPARFSGSGSGNSYSLTISSMEGEDAATYYCQQFTSSPFTFGSGTKLEIK

Legend:
[1] = target: T1, Fc tagged human SIRPα (ACRO # SIG-H5251, genotype variant 1) (human, UniProt P78324 31-370, limits assumed); assay: ELISA, plate-coated Fc tagged human SIRPα; apparent Kd
T1 construct: Bought protein; also called Fc tagged human SIRP alpha; recombinant human SIRPα; not shown: Fc tag
T1 sequence (P78324 31-370 limits assumed, change not shown, form in doubt): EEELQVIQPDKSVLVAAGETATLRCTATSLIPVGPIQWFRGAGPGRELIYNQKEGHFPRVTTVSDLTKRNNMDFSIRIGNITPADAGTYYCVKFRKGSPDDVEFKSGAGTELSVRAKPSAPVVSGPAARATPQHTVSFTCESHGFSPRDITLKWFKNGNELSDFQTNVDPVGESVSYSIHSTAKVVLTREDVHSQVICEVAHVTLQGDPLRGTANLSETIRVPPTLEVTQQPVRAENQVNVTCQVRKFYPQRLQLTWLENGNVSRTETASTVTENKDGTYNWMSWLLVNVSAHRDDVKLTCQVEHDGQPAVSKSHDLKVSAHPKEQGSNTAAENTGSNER
Protocol: The binding of anti-SIRP monoclonal antibodies (mAbs) of the present disclosure to SIRP alpha (SIRPα) was determined by solid phase ELISA using an Fc tagged human SIRP alpha. Binding by soluble anti-SIRP antibodies was measured in vitro.
Fc tagged human SIRPα (ACRO # SIG-H5251, genotype variant 1) is adsorbed to high-binding microtiter plates at a concentration of 1 μg/ml diluted in phosphate buffered saline (PBS) overnight at 4° C. The coating solution is removed, the wells are washed and then blocked with 75% casein in PBS containing 0.5% Tween 20 (PBST) for 60 minutes at room temperature while shaking. Blocking solution is removed, the wells are washed and incubated for 60 minutes at room temperature while shaking with either murine or human anti-SIRP mAbs diluted in PBST at a starting concentration of 30 μg/ml and reducing the concentration in 3-fold serial dilutions. Wells are washed three times with PBST and incubated for 60 minutes at room temperature while shaking with an HRP-labeled donkey anti-mouse or anti-human secondary antibody (Jackson ImmunoResearch Laboratories) diluted 1:10,000 in PBST. The wells are washed and then incubated with peroxidase substrate and the absorbance at 450 nm measured. The apparent affinities were calculated using a non-linear fit model (GraphPad Prism).

[2] = target: T2, Fc tagged human SIRPγ (ACRO # SIG-H5253) (human, UniProt Q9P1W8 29-360); assay: ELISA, plate-coated Fc tagged human SIRPγ; apparent Kd
T2 construct: Bought protein; it includes the transmembrane and cytoplasmic part, which a soluble Fc fusion would not carry; also called Fc tagged human SIRP gamma; recombinant human SIRP gamma; not shown: Fc tag
T2 sequence (Q9P1W8 29-360 limits assumed): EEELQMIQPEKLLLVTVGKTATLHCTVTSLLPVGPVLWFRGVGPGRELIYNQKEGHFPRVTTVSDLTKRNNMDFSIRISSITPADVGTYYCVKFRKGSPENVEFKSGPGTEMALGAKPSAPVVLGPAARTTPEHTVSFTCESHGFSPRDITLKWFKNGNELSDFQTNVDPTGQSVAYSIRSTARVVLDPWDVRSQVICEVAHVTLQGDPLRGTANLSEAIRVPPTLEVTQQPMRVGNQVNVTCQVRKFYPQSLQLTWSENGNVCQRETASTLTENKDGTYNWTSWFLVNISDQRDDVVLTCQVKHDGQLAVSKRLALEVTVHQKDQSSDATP
Protocol: The binding of anti-SIRP antibodies of the present disclosure to SIRP gamma (SIRPγ) was determined by ELISA using an Fc tagged human SIRPγ. Binding by soluble anti-SIRP antibodies was measured in vitro.
(§1) Fc tagged human SIRPγ (ACRO # SIG-H5253) is adsorbed to high-binding microtiter plates at a concentration of 1 μg/ml in phosphate buffered saline (PBS) overnight at 4° C. The coating solution is removed, the wells are washed and then blocked with 75% casein in PBS containing 0.5% Tween 20 (PBST) for 60 minutes at room temperature while shaking. Blocking solution is removed, the wells are washed and incubated for 60 minutes at room temperature while shaking with anti-SIRP mAbs diluted in PBST at a starting concentration of 30 μg/ml and reducing the concentration in 3-fold serial dilutions. Wells are washed three times with PBST and incubated for 60 minutes at room temperature while shaking with an HRP labeled donkey anti-mouse or anti-human secondary antibody (Jackson ImmonResearch Laboratories) diluted 1:10,000 in PBST. The wells are washed and then incubated with peroxidase substrate and the absorbance at 450 nm determined. The apparent affinities were calculated using a non-linear fit model (GraphPad Prism).

[3] = target: T2, Fc tagged human SIRPγ (ACRO # SIG-H5253); assay: ELISA, plate-coated Fc tagged human SIRPγ
Protocol: as §1

[4] = target: T2, Fc tagged human SIRPγ (ACRO # SIG-H5253); assay: blocking ELISA: mAb with human SIRPγ (ACRO # SIG-H5253) on plate-coated HIS tagged human CD47
Protocol: HIS tagged human CD47 (ACRO # CD7-H5227) is adsorbed to high-binding microtiter plates at a concentration of 2 μg/ml diluted in PBS overnight at 4° C. The coating solution is removed, the wells are washed and then blocked with 75% casein in PBS containing 0.5% Tween 20 (PBST) for 60 minutes at room temperature while shaking. Blocking solution is removed, the wells are washed and incubated for 60 minutes at room temperature while shaking with anti-SIRP mAbs diluted in PBST at a starting concentration of 30 μg/ml and reducing the concentration in 3 fold serial dilutions and 0.5 μg/ml of human SIRPγ (ACRO # SIG-H5253). Wells are washed three times with PBST and incubated for 60 minutes at room temperature while shaking with an HRP labeled donkey anti-mouse or anti-human secondary antibody (Jackson ImmunoResearch Laboratories) diluted 1:20,000 in PBST. The wells are washed and then incubated with peroxidase substrate and the absorbance at 450 nm determined. The IC₅₀ was calculated using a non-linear fit model (GraphPad Prism).

| Binder | Kd [1] | Kd [2] | binding result [3] | IC50 [4] |
| --- | --- | --- | --- | --- |
| B1 | 0.194 nM | 7.22 nM | – | – |
| B2 | 0.326 nM | > 15 nM | – | – |
| B3 | > 11 nM | – | no binding (tested: 30 µg/ml) | – |
| B4 | > 40 nM | – | – | – |
| B5 | 0.165 nM | > 12 nM | – | – |
| B6 | 0.157 nM | > 29 nM | – | – |
| B7 | 0.274 nM | > 21 nM | – | – |
| B8 | 0.364 nM | > 34 nM | – | – |
| B9 | 0.565 nM | – | no binding (tested: 30 µg/ml) | – |
| B10 | 1.56 nM | – | no binding (tested: 30 µg/ml) | – |
| B11 | 0.608 nM | > 14 nM | – | – |
| B12 | 0.131 nM | 0.183 nM | – | 0.86 nM |
| B13 | 0.164 nM | 0.225 nM | – | – |
| B14 | > 10 nM | > 10 nM | – | – |
